Source: US20240067734A1 (Hoffmann-La Roche, published 2024)
Read-outs that look alike come from different tables or passages of the source.

Columns and labels:
[1] = target: T1, human NKG2D expressed on cells (human, UniProt P26718 1-216); test: flow cytometry on NK92 cells, PE anti-human Fc secondary antibody
T1 construct: the cell type is named under assay; also called NKG2D on NK92 cells; HEK293T human NKG2D
T1 chain: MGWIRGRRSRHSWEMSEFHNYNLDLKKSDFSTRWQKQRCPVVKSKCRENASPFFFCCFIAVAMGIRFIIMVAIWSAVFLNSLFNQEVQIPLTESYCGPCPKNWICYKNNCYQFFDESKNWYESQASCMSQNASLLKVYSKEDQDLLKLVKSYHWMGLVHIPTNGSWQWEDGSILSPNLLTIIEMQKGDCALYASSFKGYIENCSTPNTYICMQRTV
Protocol: The anti-NKG2D antibodies P1AE4980, C26 and ADI27743 from Example 21 were tested for binding to NKG2D on NK92 cells.
Viability of NK92 cells was checked and cells were re-suspended and adjusted to a density of 1.5 mio cells/ml. 100 μl of this cell suspension (containing 0.15 mio cells) were seeded into a 96 well round bottom plate. The plate was centrifuged for 4 min at 400×g and the supernatant was removed. Then 40 μl of the diluted antibodies or FACS buffer were added to the cells and incubated for 30 min at 4° C. After the incubation the cells were washed twice with 150 μl FACS buffer per well. […] The cells were incubated for an additional 30 min at 4° C. To remove unbound antibody the cells were washed again twice with 150 μl per well FACS buffer. For the measurement, the cells were re-suspended in 150 μl FACS buffer. The fluorescence was measured using a BD flow cytometer.

[2] = target: T1, human NKG2D expressed on cells; test: flow cytometry on NKG2D-positive NK92 cells, anti-human Fc secondary antibody
[3] = target: T1, human NKG2D expressed on cells; test: as above
Protocol: (§1) Viability of NK92 cells or tumor cells (MKN-45, LS180) was checked and cells were re-suspended and adjusted to a density of 1 mio cells/ml. 100 μl per well of this cell suspension (containing 0.1 mio cells) were seeded into a 96 well round bottom plate. The plate was centrifuged for 4 min at 400×g and the supernatant was removed. Then 40 μl of the diluted antibodies or FACS buffer were added to the cells and incubated for 30 min at 4° C. After the incubation the cells were washed twice with 150 μl FACS buffer per well. […] The cells were incubated for an additional 30 min at 4° C. To remove unbound antibody, the cells were washed again twice with 150 μl per well FACS buffer. To fix the cells, 100 μl of FACS buffer containing 1% PFA were added to the wells. Before measuring, the cells were re-suspended in 150 μl FACS buffer. The fluorescence was measured using a BD flow cytometer.

[4] = target: T2, CEA expressed on LS180 tumor cells (human, UniProt P06731 35-685); test: flow cytometry on CEA-positive LS180 cells, anti-human Fc secondary antibody
T2 construct: whole, on cells; also called carcinoembryonic antigen; CEACAM5
T2 sequence (looked up): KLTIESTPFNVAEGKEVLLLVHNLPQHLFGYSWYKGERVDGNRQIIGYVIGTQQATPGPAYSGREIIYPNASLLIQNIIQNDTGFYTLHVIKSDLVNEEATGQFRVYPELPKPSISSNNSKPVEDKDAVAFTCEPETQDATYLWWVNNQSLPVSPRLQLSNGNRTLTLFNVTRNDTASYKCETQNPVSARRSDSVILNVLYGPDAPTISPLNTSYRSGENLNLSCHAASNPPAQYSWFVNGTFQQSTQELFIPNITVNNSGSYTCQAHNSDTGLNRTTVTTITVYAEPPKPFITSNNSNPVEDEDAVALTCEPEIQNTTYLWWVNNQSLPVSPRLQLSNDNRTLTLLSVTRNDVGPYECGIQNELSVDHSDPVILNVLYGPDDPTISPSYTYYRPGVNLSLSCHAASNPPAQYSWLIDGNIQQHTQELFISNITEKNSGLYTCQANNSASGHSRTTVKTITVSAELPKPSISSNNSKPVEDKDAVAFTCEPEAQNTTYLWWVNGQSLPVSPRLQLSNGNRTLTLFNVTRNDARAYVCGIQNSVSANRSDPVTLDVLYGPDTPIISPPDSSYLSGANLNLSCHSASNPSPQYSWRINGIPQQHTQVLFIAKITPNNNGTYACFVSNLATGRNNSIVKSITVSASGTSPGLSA
Protocol: as §1

[5] = target: T2, CEA expressed on LS180 tumor cells; test: as above; remark: listed apart in the source
Protocol: as §1

[6] = target: T1, human NKG2D expressed on cells; test: flow cytometry on NK92 cells, PE anti-human Fc secondary antibody

B1: anti-NKG2D antibody C26 IgG (PG LALA) (antibody, V domains shown)
VH: QVQLQQWGAGLLKPSETLSLTCAVYGGSFSGYYWSWIRQPPGKGLEWIGEIDHSGSTNYNPSLKSRVTISVDTSKNQFSLKLSSVTAADTAVYYCARARGPWSFDPWGQGTLVTVSS
VL: DIQMTQSPSTLSASVGDRVTITCRASQSISSWLAWYQQKPGKAPKLLIYKASSLESGVPSRFSGSGSGTEFTLTISSLQPDDFATYYCQQYGSFPITFGGGTKVEIKR
notes: Human IgG1 with PGLALA; variable domains from WO 2018/148445
binding result [1]: binds

B2: anti-NKG2D antibody ADI27743 IgG (PG LALA) (antibody, V domains shown)
VH: QVQLQQWGAGLLKPSETLSLTCAVYGGSFSGYYWSWIRQPPGKGLEWIGEIDHSGSTNYNPSLKSRVTISVDTSKNQFSLKLSSVTAADTAVYYCARARGPWSFDPWGQGTLVTVSS
VL: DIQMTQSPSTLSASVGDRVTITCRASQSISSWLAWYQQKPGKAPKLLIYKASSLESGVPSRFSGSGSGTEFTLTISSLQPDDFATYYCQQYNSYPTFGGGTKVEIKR
notes: as for B1
binding result [1]: binds

B3: NKG2D×CEA bispecific antibody, anti-NKG2D 320 / anti-CEA B9, J format (bispecific antibody, V domains shown)
VH 1: EVQLLESGGGLVQPGGSLRLSCATSGFTFSDYAMSWVRQAPGKGLEWVSYNSFSVGSTDYADSVKGRFTISRDNSKNTLYLQMNSLRAEDTAVYYCSKHSGNYYTGPFHYWGQGTLVTVSS
VL 1: DIQLTQSPSFLSASVGDRVTITCRASQGISSYLAWYQQKPGKAPKLLIYAASSLESGVPSRFSGSGSGTDFTLTISSLQPEDFATYYCQQSYSTPITFGQGTRLEIK
VH 2: VQLVESGGGLVQPGRSLRLSCAASGFTVSSYWMHWVRQAPGKGLEWVGFIRNKANGGTTEYAASVKGRFTISRDDSKNTLYLQMNSLRAEDTAVYYCARDRGLRFYFDYWGQGTTVTVSS
VL 2: QAVLTQPASLSASPGASASLTCTLRRGINVGAYSIYWYQQKPGSPPQYLLRYKSDSDKQQGSGVSSRFSASKDASANAGILLISGLQSEDEADYYCMIWHSGASAVFGGGTKLTVL
notes: also called format J (320); tetravalent construct J
EC50 (read off the curve) [2]: ~6 nM

B4: NKG2D×CEA bispecific antibody, anti-NKG2D 395 (C50S) / anti-CEA B9, I format (bispecific antibody, V domains shown)
VH 1: QEQLEQSGGGLVTPGGSLKLCCTASGFDFNTFWMTWVRQAPGKGLEWIGSIHGGSGSRDYASWVNGRFTLSRDIDQSTACLQVNSLTAADTAMYYCARPGYRSWSKTFDLWGQGTMVTVSS
VL 1: DIQMTQSPSSLSASVGDRVTITCRASQDISGALNWYQQKPGKAPNLLIYAASSLQSGVPSRFSGSGSGTDYTLTISSLQPEDFATYYCQQANSFPLTFGGGTKVEIK
VH 2: VQLVESGGGLVQPGRSLRLSCAASGFTVSSYWMHWVRQAPGKGLEWVGFIRNKANGGTTEYAASVKGRFTISRDDSKNTLYLQMNSLRAEDTAVYYCARDRGLRFYFDYWGQGTTVTVSS
VL 2: QAVLTQPASLSASPGASASLTCTLRRGINVGAYSIYWYQQKPGSPPQYLLRYKSDSDKQQGSGVSSRFSASKDASANAGILLISGLQSEDEADYYCMIWHSGASAVFGGGTKLTVL
notes: also called bivalent I format
EC50 (read off the curve) [3]: ~2 nM

B5: NKG2D×CEA bispecific antibody, anti-NKG2D 320 / anti-CEA B9, L format (bispecific antibody, V domains shown)
VH 1: EVQLLESGGGLVQPGGSLRLSCATSGFTFSDYAMSWVRQAPGKGLEWVSYNSFSVGSTDYADSVKGRFTISRDNSKNTLYLQMNSLRAEDTAVYYCSKHSGNYYTGPFHYWGQGTLVTVSS
VL 1: DIQLTQSPSFLSASVGDRVTITCRASQGISSYLAWYQQKPGKAPKLLIYAASSLESGVPSRFSGSGSGTDFTLTISSLQPEDFATYYCQQSYSTPITFGQGTRLEIK
VH 2: VQLVESGGGLVQPGRSLRLSCAASGFTVSSYWMHWVRQAPGKGLEWVGFIRNKANGGTTEYAASVKGRFTISRDDSKNTLYLQMNSLRAEDTAVYYCARDRGLRFYFDYWGQGTTVTVSS
VL 2: QAVLTQPASLSASPGASASLTCTLRRGINVGAYSIYWYQQKPGSPPQYLLRYKSDSDKQQGSGVSSRFSASKDASANAGILLISGLQSEDEADYYCMIWHSGASAVFGGGTKLTVL
notes: also called format L (320)
EC50 (read off the curve) [4]: ~10 nM

B6: anti-CEA antibody B9 (IgG) (antibody, V domains shown)
VH: VQLVESGGGLVQPGRSLRLSCAASGFTVSSYWMHWVRQAPGKGLEWVGFIRNKANGGTTEYAASVKGRFTISRDDSKNTLYLQMNSLRAEDTAVYYCARDRGLRFYFDYWGQGTTVTVSS
VL: QAVLTQPASLSASPGASASLTCTLRRGINVGAYSIYWYQQKPGSPPQYLLRYKSDSDKQQGSGVSSRFSASKDASANAGILLISGLQSEDEADYYCMIWHSGASAVFGGGTKLTVL
notes: IgG
EC50 (read off the curve) [4]: ~2 nM | EC50 (read off the curve) [5]: ~2 nM

B7: NKG2D×CEA bispecific antibody, anti-NKG2D 320 / anti-CEA B9, I format (bispecific antibody, V domains shown)
VH 1: EVQLLESGGGLVQPGGSLRLSCATSGFTFSDYAMSWVRQAPGKGLEWVSYNSFSVGSTDYADSVKGRFTISRDNSKNTLYLQMNSLRAEDTAVYYCSKHSGNYYTGPFHYWGQGTLVTVSS
VL 1: DIQLTQSPSFLSASVGDRVTITCRASQGISSYLAWYQQKPGKAPKLLIYAASSLESGVPSRFSGSGSGTDFTLTISSLQPEDFATYYCQQSYSTPITFGQGTRLEIK
VH 2: VQLVESGGGLVQPGRSLRLSCAASGFTVSSYWMHWVRQAPGKGLEWVGFIRNKANGGTTEYAASVKGRFTISRDDSKNTLYLQMNSLRAEDTAVYYCARDRGLRFYFDYWGQGTTVTVSS
VL 2: QAVLTQPASLSASPGASASLTCTLRRGINVGAYSIYWYQQKPGSPPQYLLRYKSDSDKQQGSGVSSRFSASKDASANAGILLISGLQSEDEADYYCMIWHSGASAVFGGGTKLTVL
notes: also called format I (320); I format with antibody 320
EC50 (read off the curve) [2]: ~10 nM

B8: bispecific NKG2D×CEA antibody in M format, ADI27743 / huA5B7 (bispecific antibody, human IgG1, kappa, L234A L235A)
heavy 1: not shown
light 1: QVQLQQWGAGLLKPSETLSLTCAVYGGSFSGYYWSWIRQPPGKGLEWIGEIDHSGSTNYNPSLKSRVTISVDTSKNQFSLKLSSVTAADTAVYYCARARGPWSFDPWGQGTLVTVSSASVAAPSVFIFPPSDEQLKSGTASVVCLLNNFYPREAKVQWKVDNALQSGNSQESVTEQDSKDSTYSLSSTLTLSKADYEKHKVYACEVTHQGLSSPVTKSFNRGEC
heavy 2: not shown
light 2: EIVLTQSPATLSLSPGERATLSCRASSSVTYIHWYQQKPGQAPRSWIYATSNLASGIPARFSGSGSGTDFTLTISSLEPEDFAVYYCQHWSSKPPTFGQGTKLEIKRTVAAPSVFIFPPSDRKLKSGTASVVCLLNNFYPREAKVQWKVDNALQSGNSQESVTEQDSKDSTYSLSSTLTLSKADYEKHKVYACEVTHQGLSSPVTKSFNRGEC
notes: also called ADI27743 bispecific
binding result [6]: binds

B9: anti-NKG2D antibody P1AE4980 (IgG) (antibody, V domains shown)
VH: QEQLVQSGAEVKKPGESLKISCKGSGFDFNTFWMTWVRQMPGKGLEWMGSIHGGSGSRDYSPSFQGQVTISADIDQSTAYLQWSSLKASDTAMYYCARPGYRSWSKTFDLWGQGTTVTVSS
VL: DIQMTQSPSSLSASVGDRVTITCRASQDISGALNWYQQKPGKAPNLLIYAASSLQSGVPSRFSGSGSGTDYTLTISSLQPEDFATYYCQQANSFPLTFGGGTKVEIK
notes: Tested as IgG beside C26 and ADI27743 (human IgG1 PGLALA)
binding result [1]: binds
